B1: YPL246C (protein, UniProt Q12270 1-262, looked up)
Rhomboid-type serine protease …: MNWKSYVFPGGHPPAALTTGLVVFLTAIYLLSFIFALREDLSLAPESLFKLQMSRLSLYPLIHLSLPHLLFNVLAIWAPLNLFEETHGTVYTGVFLNLSALFAGILYCLLGKLLYPEALVAGASGWCFTLFAYYSFKESQIRPRTRIFRTDYSIPTLYTPLVLLVAIAVVIPGSSFWGHFFGLCVGYAIGYKESWFNKITPPGWIITKIEKSLDGLIRLIPWGIKYYRDEDIDRTKDYEPLMSTETPLPLHNDNSGTVLGTA
B2: YGR037C (protein, UniProt P31787 1-87, looked up)
Acyl-CoA-binding protein: MVSQLFEEKAKAVNELPTKPSTDELLELYALYKQATVGDNDKEKPGIFNMKDRYKWEAWENLKGKSQEDAEKEYIALVDQLIAKYSS
B3: YOR229W (protein, UniProt Q12206 1-467, looked up)
Transcriptional modulator WTM2: MAKSKSSQGASGARRKPAPSLYQHISSFKPQFSTRVDDVLHFSKTLTWRSEIIPDKSKGTLTTSLLYSQGSDIYEIDTTLPLKTFYDDDDDDDNDDDDEEGNGKTKSAATPNPEYGDAFQDVEGKPLRPKWIYQGETVAKMQYLESSDDSTAIAMSKNGSLAWFRDEIKVPVHIVQEMMGPATRYSSIHSLTRPGSLAVSDFDVSTNMDTVVKSQSNGYEEDSILKIIDNSDRPGDILRTVHVPGTNVAHSVRFFNNHLFASCSDDNILRFWDTRTADKPLWTLSEPKNGRLTSFDSSQVTENLFVTGFSTGVIKLWDARAVQLATTDLTHRQNGEEPIQNEIAKLFHSGGDSVVDILFSQTSATEFVTVGGTGNVYHWDMEYSFSRNDDDNEDEVRVAAPEELQGQCLKFFHTGGTRRSSNQFGKRNTVALHPVINDFVGTVDSDSLVTAYKPFLASDFIGRGYDD
B4: YIL095W (protein, UniProt P40494 1-810, looked up)
Actin-regulating kinase PRK1: MNTPQISLYEPGTILTVGSHHAKIIKYLTSGGFAQVYTAEISPPDPYSNANIACLKRVIVPHKQGLNTLRAEVDAMKLLRNNKHVVSYIDSHAARSVNGIAYEVFVLMEFCERGGLIDFMNTRLQNRLQESEILEIMSQTVQGITAMHALQPPLIHRDIKIENVLISHDGLYKVCDFGSVSGVIRPPRNTQEFNYVQHDILTNTTAQYRSPEMIDLYRGLPIDEKSDIWALGVFLYKICYYTTPFEKSGEAGILHARYQYPSFPQYSDRLKNLIRLMLMEAPSQRPNICQVLEEVSRLQNKPCPIRNFYLLRAMNQNANTQLAGEPSSTTYVPTQKFIPVQSLQSINQPPNMMPVTHVSTTPNLGTFPISINDNNKTEVTAHAGLQVGSHSNLTSPLMKTKSVPLSDEFASLYYKELHPFQKSQTFKSVESFQSPQRKSMPPLSLTPVNNDIFDRVSAINRPNNYVDSETQTIDNMAVPNLKLSPTITSKSLSSTKEIAAPDNINGSKIVRSLSSKLKKVITGESRGNSPIKSRQNTGDSIRSAFGKLRHGFTGNSVNNSRSASFDNNNVNGNGNNTNRRLVSSSTSSFPKFNSDTKRKEESDKNQRLEKRRSMPPSILSDFDQHERNNSRTGSRDYYRSHSPVKKTQASAKTTSKPTLIPDNGNVNINQEKKESIQRRVHNLLKSSDDPVTYKSASGYGKYTDIGTETSNRHSSVRITPITEEKFKKTLKDGVLDIKTKSNGKDKSRPPRPPPKPLHLRTEIQKIRNFSRLQSKKLPIERISSEATETIVDVNVDDLEADFRKRFPSKV
B5: YBL071W-A (protein, UniProt Q3E840 1-82, looked up)
Diphthamide biosynthesis …: MSTYDEIEIEDMTFEPENQMFTYPCPCGDRFQIYLDDMFEGEKVAVCPSCSLMIDVVFDKEDLAEYYEEAGIHPPEPIAAAA

How the values were obtained:
Assay type in all cases: cell-based, Saccharomyces cerevisiae
ABP1 = assay: DHFR-PCA on solid medium, bait ABP1 (Fig. 1B); details: bait ABP1, label = prey; for medrep (log2 median colony size normalized to plate background, PCA score): 2-4 replicates; for Ratio (SH3-deleted/WT medrep): only significant differences showed, PPIs completely lost have a ratio of 0.1 and the gained PPIs 2.5
Excerpt: Supplement 41467_2021_21873_MOESM8_ESM.xlsx, sheet "Fig1B" | column: medsize; medrep; Ratio; Score

[1] = system: 575 putative partners (preys) of 22 WT SH3-containing proteins; assay: DHFR-PCA on solid medium, WT and SH3-deleted baits (Fig. 1B); set-up: key to Score: 0: SH3-independent; 1: SH3-dependent PPIs; 2: SH3-inhibited PPIs; details: for medrep (log2 median colony size normalized to plate background, PCA score): label = prey; for Ratio (SH3-deleted/WT medrep): only significant differences shown, PPIs completely lost have a ratio of 0.1, gained PPIs 2.5
Excerpt: To assess the requirement of SH3 domains for PPIs in vivo, we first measured binary interactions between 22 WT SH3-containing proteins (Supplementary Fig. 1A) as baits and 575 putative partners from their interconnected signaling networks using the dihydrofolate reductase protein–fragment complementation assay (DHFR-PCA) in the budding yeast Saccharomyces cerevisiae. About 33% (202/607) of the PPIs detected were described before, mostly by direct methods (Supplementary Fig. 1B, C)[11]. We repeated the experiments with baits in which the SH3s were individually replaced with a flexible linker by genome editing (SH3 domain deletion/stuffing, Fig. 1A). The stuffer DNA sequence ([…]) codes for a small flexible poly-Gly with Ser peptide ([…]) that is inspired by previous experiments[12],[13]. About a third of the SH3-containing protein interactome is qualitatively or quantitatively SH3-dependent (171 PPIs out of 607, Fig. 1B and Supplementary Fig. 1B, C). We validated the vast majority of the quantitative changes in low-throughput experiments and excluded that this is simply due to changes in protein abundance in most cases (Supplementary Fig. 1D–G). SH3-binding motifs[14] are more frequent in the SH3-dependent PPI partners when compared to sequences from random proteins, SH3-independent PPI partners or PPI partners that are stronger or gained following SH3 deletions (p values = 1.5 × 10^−17, 0.0038 and 2.1 × 10^−08, respectively; Mann–Whitney test, one-tailed, Fig. 1C). The changes we measure are therefore enriched for PPIs that depend on the direct interactions of the domains with the PPI partners.
The complete list of strains, primers, and gRNAs used in this study can be found in Supplementary Tables 1–3. All constructed yeast strains were validated by polymerase chain reaction (PCR) and confirmed by Sanger sequencing of the locus of interest. Bait strains for the DHFR-PCA experiments were constructed as follows. The genes of interest were fused at their genomic 3′ end by replacing the stop codon with a linker ([…]), the DHFR F[1,2] followed by a smaller linker (GGGGS), a 1× FLAG tag ([…]) and the NATMX4 resistance cassette via homologous recombination (all amplified from pAG25-DHFR[1,2]-linker-FLAG). The set of 615 prey strains (DHFR F[3] fusions in the BY4742 background) were retrieved from the Yeast Protein Interactome Collection[43] with the exception of 73 that were reconstructed (Supplementary Tables 1 and 2). Knockout strains were taken from the yeast knockout collection except for ABP1, BEM1, BZZ1, and SLA1, which were reconstructed by replacing the ORFs with the NATMX4 resistance cassette by homologous recombination in the BY4741 background.
Yeast SH3 domain genomic sequences were replaced by CRISPR–Cas9 genome editing. Each SH3 domain (as defined by the SMART database V8.0 except for Ysc84 SH3 (as defined by PROSITE), see Source Data for all SH3 sequences and Supplementary Table 1 for primers used) was specifically targeted by one gRNA[46]. Yeast competent cells were co-transformed with a pCAS plasmid (Addgene plasmid 60847[47]) expressing both the gRNA of interest and Streptococcus pyogenes Cas9[46] and a donor DNA sequence (stuffer) with 60 bp homology arms surrounding the SH3 DNA sequence. The Stuffer DNA was either PCR amplified or digested from a plasmid. The stuffer DNA sequence ([…]) codes for a small flexible linker ([…]) inspired by protein linkers used in structural biology[12],[13]. This type of linker is frequently used for fusing proteins without affecting the structure of the linked proteins.
The overall DHFR-PCA pipeline is based on Tarassov et al.[43] and the procedures have also been published as a visualized protocol. The screens were performed with robotically manipulated pin tools (BM5-SC1, S&P Robotics Inc.). First, the preys were cherry-picked from 96-well plates to omnitrays in a 384 format on YPD + HPH solid media. […]

Abp1 PPIs = assay: DHFR-PCA of Abp1 SH3-swapped baits (Fig. 2B-D, S2C, S2F); details: Fig2B; bait ABP1, label = prey; Replicates 4
Excerpt: Having determined that multiple PPIs require SH3s, we asked whether the latter establish PPI specificity independently from their host proteins by swapping domains (Fig. 2A). Using the second round of genome editing, we individually replaced Abp1 SH3 with the 27 yeast SH3s and 3 human Abp1 orthologs’ SH3s (CTTN, HCLS1, and DBNL, Fig. 2B). The reintroduction of its own SH3 (Abp1SH3 in Abp1) reconstitutes almost perfectly Abp1’s interaction profile (Kendall’s τ = 0.93, Fig. 2B). […] No homologous SH3 domain fully re-establishes the normal Abp1 PPI profile (Fig. 2B and Supplementary Fig. 2C). However, we observe a significant correlation (cophenetic correlation = 0.20, p value = 0.005, Fig. 2C) between the similarity of PPI profiles (Fig. 2B) and the sequence similarity of the SH3s. […] Nonetheless, a subset of SH3-dependent PPIs is only observed with the endogenous domain. For instance, Hua2 and App1, both well-characterized partners of Abp1[14],[18],[19], are only detected when Abp1 contains its own SH3 (WT or swapped via editing). A given SH3 may therefore not be fully replaceable with other paralogous or orthologous domains. This pattern is confirmed by cellular growth phenotypic analyses (Supplementary Fig. 2D, E). PPIs, SH3 sequence similarity, and growth profiles under stress conditions are correlated (Supplementary Fig. 2D, E). This relationship is particularly clear when analyzing growth on media supplemented with hygromycin.
The stuffing of YSC84 SH3 rendered the strain sterile and was therefore not used for this study as the assays require crosses. For genes containing two SH3s (BZZ1 and BEM1), a combination of this first stuffer with a second one ([…]) coding for a highly similar linker ([…]) was used, which allowed targeting each SH3 position independently. The two N-terminal domains of SLA1, which are separated by six nucleotides, were stuffed by a single stuffer. Cells containing pCAS were selected via the G418 resistance cassette from the plasmid on YPD plates (YPD + NAT 100 μg/ml (DHFR F[1,2] selection) + G418 200 µg/mL (Bioshop Canada)). Colonies were randomly selected and grown in YPD media without G418 to allow plasmid loss. The correct insertion of the stuffer was validated by PCR and Sanger sequencing. The SH3-swapped, -shuffled, and -mutated strains were constructed following a second CRISPR–Cas9 editing step with the same procedures. The stuffer sequences were targeted by specific gRNAs (one gRNA per stuffer) and replaced by PCR amplified specific SH3 (with 40 bp homology arms) or libraries of mutated SH3 domains for Deep Mutational Scanning (DMS) with 78 bp flanking homology regions. Validation of the SH3 domain insertions was done as we previously described except for DMS libraries (see below).
The overall DHFR-PCA pipeline is based on Tarassov et al.[43] and the procedures have also been published as a visualized protocol. The screens were performed with robotically manipulated pin tools (BM5-SC1, S&P Robotics Inc.). First, the preys were cherry-picked from 96-well plates to omnitrays in a 384 format on YPD + HPH solid media. Plates were then combined into the 1536 format on YPD + HPH. The array was constituted of 575 preys previously shown to interact physically with at least one SH3-containing protein as reported in BioGRID V3.4.16 along with 40 negative controls. The prey array comprised a border of control strains of two rows and two columns corresponding to the PPI between LSM8-DHFR F[1,2] and CDC39-DHFR F[3]. This double border was used to remove border effects. Preys are present in duplicate at a randomized position in the 1536 array (except for YAL041W which is present four times per array). Baits were crossed with two prey plates, resulting in four independent bait–prey tests for each PPI. Baits were grown in liquid YPD + NAT and then transferred on solid YPD + NAT omnitrays. They were then replicated on YPD + NAT omnitrays in 1536 array format. […]

[2] = bait SLA1-2, DHFR-PCA, Replicates 4 (2 for YCR009C, YDR388W)
[3] = bait SLA1-3, DHFR-PCA, Replicates 4 (2 for YCR009C, YDR388W, YIL033C)

Molecule | medrep (log2 median colony size normalized to plate background, PCA score) (ABP1) | Ratio (SH3-deleted/WT medrep) (ABP1) | medrep (log2 median colony size normalized to plate background, PCA score) [1, 2] | Score ([1]; bait SLA1-2, label = prey) | Ratio (SH3-deleted/WT medrep) ([1]; bait SLA1-2, label = prey) | medrep (log2 median colony size normalized to plate background, PCA score) [1, 3] | Score ([1]; bait SLA1-3, label = prey) | Ratio (SH3-deleted/WT medrep) ([1]; bait SLA1-3, label = prey) | medrep (log2 median colony size normalized to plate background) (Abp1 PPIs) | medsize (median colony size) (Abp1 PPIs)
B1 | 1.384 | 2.5 |  |  |  |  |  |  |  | 
B2 | 3.115 |  | 1.385 | 1 | 0.1 | 1.385 | 1 | 0.1 |  | 
B3 | 1.855 | 2.5 |  |  |  |  |  |  |  | 
B4 | 4.25 |  | 1.8519 | 1 | 0.1 | 1.8519 | 0 |  |  | 
B5 | 1.99 | 1.369 |  |  |  |  |  |  | 1.454 | 388
